Key:
[1] = molecular target: full-length ectodomain of human CSF-1R (hCSF-1R D1-D5) (human, UniProt P07333 20-517); test: ITC
[2] = molecular target: N-terminal three Ig-like domains of human CSF-1R (hCSF-1R D1-D3) (human, UniProt P07333 20-298); test: ITC
Sequence of N-terminal three Ig-like domains of human CSF-1R (hCSF-1R D1-D3) (P07333 20-298): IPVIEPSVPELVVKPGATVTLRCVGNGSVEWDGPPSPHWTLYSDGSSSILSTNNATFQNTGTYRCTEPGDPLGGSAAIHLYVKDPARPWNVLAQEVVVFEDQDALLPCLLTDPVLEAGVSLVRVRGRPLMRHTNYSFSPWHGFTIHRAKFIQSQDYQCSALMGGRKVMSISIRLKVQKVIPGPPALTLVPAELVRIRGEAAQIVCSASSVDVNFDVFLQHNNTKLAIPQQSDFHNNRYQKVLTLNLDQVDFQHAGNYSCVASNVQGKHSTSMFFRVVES

Sequence of full-length ectodomain of human CSF-1R (hCSF-1R D1-D5) (P07333 20-517): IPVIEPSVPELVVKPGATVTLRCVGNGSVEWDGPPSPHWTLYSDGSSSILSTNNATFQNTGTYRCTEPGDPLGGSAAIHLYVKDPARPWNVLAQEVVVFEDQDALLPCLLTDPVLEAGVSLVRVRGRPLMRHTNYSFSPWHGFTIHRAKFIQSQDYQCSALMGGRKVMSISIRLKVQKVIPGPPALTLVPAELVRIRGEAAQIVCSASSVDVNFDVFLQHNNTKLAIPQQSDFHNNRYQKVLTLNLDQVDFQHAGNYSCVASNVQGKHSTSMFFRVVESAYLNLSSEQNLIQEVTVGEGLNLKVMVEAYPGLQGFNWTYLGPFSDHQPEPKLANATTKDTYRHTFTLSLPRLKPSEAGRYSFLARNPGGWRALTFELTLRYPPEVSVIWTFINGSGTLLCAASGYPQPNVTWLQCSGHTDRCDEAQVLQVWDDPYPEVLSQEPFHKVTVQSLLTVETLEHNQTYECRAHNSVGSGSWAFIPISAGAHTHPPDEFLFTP

B1: human IL-34 (ligand, UniProt Q6ZMJ4 21-242, looked up)
chain: NEPLEMWPLTQNEECTVTGFLRDKLQYRSRLQYMKHYFPINYKISVPYEGVFRIANVTRLQRAQVSERELRYLWVLVSLSATESVQDVLLEGHPSWKYLQEVETLLLNVQQGLTDVEVSPKVESVLSLLNAPGPNLKLVRPKALLDNCFRVMELLYCSCCKQSSVLNWQDCEVPSPQSCSPEPSLQYAATQLYPPPPWSPSSPPHSTGSVRPVRAQGEGLLP
fold higher affinity than to CSF-1R D1-D3 [1]: ~400 fold
stoichiometry N [1]: 1
stoichiometry N [2]: 1

From article PMC3372767 (Biochimica et Biophysica Acta, 2012)
